According to article PMC12208167:

Columns and labels:
[1] = biological target: human neonatal Fc receptor (FcRn) (human) (UniProt P55899); assay: ELISA
[2] = biological target: murine neonatal Fc receptor (FcRn) (mouse | not stated) (UniProt Q61559); assay: ELISA
[3] = biological target: human neonatal Fc receptor (FcRn) (human) (UniProt P55899); assay: SPR
[4] = biological target: murine neonatal Fc receptor (FcRn) (mouse | not stated) (UniProt Q61559); assay: SPR

| EC50 [1] | EC50 [2] | Kd [3] | Kd [4] | Substance |
| --- | --- | --- | --- | --- |
| 1140 nM | 130 nM |  |  | B domain-deleted (BDD) FVIII (ReFacto AF) (natural protein) |
|  |  | 1.3 to 2.8 nM | 0.2 to 0.4 nM | m66.6, human anti-MPER HIV monoclonal IgG1 (antibody) |
